Laboratory results taken from publication doi:10.1101/099465.

Molecular target: Laminin-111 (UniProt P19137)
Assay: SPR

VEGFA165 (ligand)
Kd: 47 nM
